Assay results as given in US20260234188A1, “CHEMOKINE-BINDING PEPTIDES” (Oxford University Innovation Limited, priority 2022, published 2026).

Columns and labels:
[1] = molecular target: T1, CXCL10 (Homo sapiens, UniProt P02778); experiment: CXCL10-induced activated T-cell migration, transwell assay; format: cell-based; conditions: dose of 20 μM
T1 construct: purchased Peprotech
T1 sequence (P02778 22-98): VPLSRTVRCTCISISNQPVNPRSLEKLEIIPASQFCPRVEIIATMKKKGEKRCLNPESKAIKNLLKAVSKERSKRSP
Method: FIG. 2. […] BK1.2 is described in (Darlot, 2020). […] Chemokines used are indicated by the name, followed in parenthesis by the supplier code (P in supplier code indicates Peprotech). […] All experiments were performed at EC80 doses of indicated chemokine. Data are shown as box-whisker plots of three technical and three biological replicates. Statistically significant differences (compared to control, indicated by #), using Dunnett's test with correction for multiple comparisons, are indicated by asterisks: ****=P≤0.0001, ***=P≤0.001, **=P≤0.01, *=P≤0.05.
FIG. 11. […] Technical replicates are shown as individual data points. […] The response curve (solid blue line) and its 95% confidence interval (grey ribbon) were calculated using a 4-parameter log-logistic plot.
(§1) Briefly, cell migration assays use THP1 cells (human monocyte) and primary human buffy coat white cells (consisting of neutrophil granulocytes, monocytes, and lymphocytes), and activated T-cells. THP1 cells and primary monocytes respond to CCL2, CCL3, CCL5, CCL8 and CXCL4, granulocytes to CXCL1 and CXCL8, activated T-cells to CXCL9/10/11. Assays are performed in 96-well Boyden chambers, and migrated cells counted and characterized using and ATTUNE Flow Cytometer as described. […]

[2] = system: CC and CXC chemokines; experiment: Chemokine-induced cell migration assays, pooled over chemokines (meta-analysis); format: cell-based, human; conditions: CC chemokines
Method: FIG. 16. Effect of HD2 alanine mutations on chemotaxis. […] All experiments were performed as three technical and three biological replicates, and individual data points are indicated, and coloured by the chemokine used. Statistically significant differences (compared to control, coloured blue), using Dunnett's test with correction for multiple comparisons, are indicated by asterisks: ****=P≤0.0001, ***=P≤0.001, **=P≤0.01, *=P≤0.05, n=45 observations per group (three technical and three biological replicates for each chemokine). FIG. 16B, Faceted plots of change in median normalised cell count between alanine mutant and wild-type HD2 peptide obtained in cell migration assays (Y-axis, Δmedian normalised cell count) versus alanine mutated residue (X-axis). Chemokines used for each experiment are indicated in the strip to the right of each plot. Statistically significant differences compared to parental HD2 are shown as red dots. […]
as §1, with “THP1 cells and primary monocytes respond to CCL2, CCL3, CCL5, CCL8 and CXCL4, granulocytes to CXCL1 and CXCL8, activated T-cells to CXCL9/10/11.” left out

B1: EVA4: parental class A tick evasin protein of HD2, expressed in HEK293F cells (protein)
chain: EVPQMTSSSAPDLEEEDDYTAYAPLTCYFTNSTLGLLAPPNCSVLCNSTTTWFNETSPNNASCLLTVDFLTQDAILQENQPYNCSVGHCDNGTCAGPPRHAQCW
- inhibition of cell migration [1]: did not inhibit
- inhibition of CC chemokines in dose-response experiments [2]: inhibited
